This is an account of results in patent US20230390340A1.

The experiment concerns the target ApoE dependent receptors (on bEND.3 mouse endothelial cells) (mouse). The experiment is described as follows: cell-based or functional assay.

Take “IDS.ApoEII (human iduronate-2-sulfatase with C-terminal invariant flexible linker and ApoE receptor-binding tandem repeat) (from UniProt P22304 26-550) (enzyme)”: the uptake of IDS.ApoEII into bEND.3 cells after 24 hours, following blocking with human recombinant ApoE amounted to 30%.
